Data on 94 variants can be found in the supplement of paper PMC10567573.

B1: ZNF649 (parent)
chain: LVAHQRYHTGKTPFVCPECGQPCS
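Also: lentivirally expressed fusions sorted by FACS into six bins by GFP to DsRed ratio, PSI derived from sequencing read proportions per bin multiplied by bin number.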

In this data set the parent is B1. The data set is described as follows: protein stability index of a GFP-peptide fusion (GPS, HEK-293T) (PSI 1-6); higher = more stable. Particulars: c terminus: a fixed tail appended.
As for WVAHQRYHTGKTPFVCPECGQPCS [L1W], the protein stability index turned out to be 2.46.
In the case of NVAHQRYHTGKTPFVCPECGQPCS [L1N] it was 4.24; in that of VVAHQRYHTGKTPFVCPECGQPCS [L1V], 3.35; in that of EVAHQRYHTGKTPFVCPECGQPCS [L1E], 4.06.
As for SVAHQRYHTGKTPFVCPECGQPCS [L1S], the protein stability index came to 4.24.
Then DVAHQRYHTGKTPFVCPECGQPCS [L1D], with 3.6; and AVAHQRYHTGKTPFVCPECGQPCS [L1A], with 3.76.
Then QVAHQRYHTGKTPFVCPECGQPCS [L1Q], with 3.87.
In the case of YVAHQRYHTGKTPFVCPECGQPCS [L1Y] it was 1.22; in that of MVAHQRYHTGKTPFVCPECGQPCS [L1M], 3.25.
Turning to IVAHQRYHTGKTPFVCPECGQPCS [L1I], the protein stability index turned out to be 2.95.
Then PVAHQRYHTGKTPFVCPECGQPCS [L1P], with 4.28; and TVAHQRYHTGKTPFVCPECGQPCS [L1T], with 3.93.
Consider RVAHQRYHTGKTPFVCPECGQPCS [L1R], for which the protein stability index was determined as 3.63.
In the case of HVAHQRYHTGKTPFVCPECGQPCS [L1H] it was 3.48; in that of FVAHQRYHTGKTPFVCPECGQPCS [L1F], 2.57; in that of CVAHQRYHTGKTPFVCPECGQPCS [L1C], 4.67.
Then GVAHQRYHTGKTPFVCPECGQPCS [L1G], with 3.67; and KVAHQRYHTGKTPFVCPECGQPCS [L1K], with 3.65.
In the case of LVKHQRYHTGKTPFVCPECGQPCS [A3K] it was 3.41; in that of LVDHQRYHTGKTPFVCPECGQPCS [A3D], 4.3.
In the case of LVIHQRYHTGKTPFVCPECGQPCS [A3I], the protein stability index was determined as 3.32.
In the case of LVEHQRYHTGKTPFVCPECGQPCS [A3E] it was 4.14; in that of LVMHQRYHTGKTPFVCPECGQPCS [A3M], 2.71.
Then LVRHQRYHTGKTPFVCPECGQPCS [A3R], with 3.14; and LVVHQRYHTGKTPFVCPECGQPCS [A3V], with 2.46; and LVLHQRYHTGKTPFVCPECGQPCS [A3L], with 2.69.
In the case of LVPHQRYHTGKTPFVCPECGQPCS [A3P] it was 3.24; in that of LVTHQRYHTGKTPFVCPECGQPCS [A3T], 3.47.
Regarding LVWHQRYHTGKTPFVCPECGQPCS [A3W], the protein stability index was 2.57.
In the case of LVHHQRYHTGKTPFVCPECGQPCS [A3H] it was 3.59.
For the variant LVYHQRYHTGKTPFVCPECGQPCS [A3Y], the protein stability index was determined as 2.38.
In the case of LVFHQRYHTGKTPFVCPECGQPCS [A3F] it was 2.23.
In the case of LVNHQRYHTGKTPFVCPECGQPCS [A3N] it was 2.71; in that of LVGHQRYHTGKTPFVCPECGQPCS [A3G], 3.68; in that of LVQHQRYHTGKTPFVCPECGQPCS [A3Q], 3.68.
Then LVCHQRYHTGKTPFVCPECGQPCS [A3C], with 4.11.
Take LVSHQRYHTGKTPFVCPECGQPCS [A3S]: the protein stability index amounted to 3.58.
As for LVAHQDYHTGKTPFVCPECGQPCS [R6D], the protein stability index worked out at 3.58.
In the case of LVAHQQYHTGKTPFVCPECGQPCS [R6Q] it was 3.6; in that of LVAHQAYHTGKTPFVCPECGQPCS [R6A], 3.46; in that of LVAHQNYHTGKTPFVCPECGQPCS [R6N], 3.37.
Then LVAHQEYHTGKTPFVCPECGQPCS [R6E], with 3.74; and LVAHQFYHTGKTPFVCPECGQPCS [R6F], with 2.69.
Then LVAHQHYHTGKTPFVCPECGQPCS [R6H], with 4.1; and LVAHQMYHTGKTPFVCPECGQPCS [R6M], with 3.19; and LVAHQVYHTGKTPFVCPECGQPCS [R6V], with 2.98.
As to LVAHQIYHTGKTPFVCPECGQPCS [R6I], the protein stability index was 3.12.
Then LVAHQLYHTGKTPFVCPECGQPCS [R6L], with 2.93; and LVAHQSYHTGKTPFVCPECGQPCS [R6S], with 3.96; and LVAHQKYHTGKTPFVCPECGQPCS [R6K], with 3.44.
Turning to LVAHQTYHTGKTPFVCPECGQPCS [R6T], the protein stability index worked out at 3.48.
As to LVAHQPYHTGKTPFVCPECGQPCS [R6P], the protein stability index turned out to be 3.65.
With LVAHQCYHTGKTPFVCPECGQPCS [R6C], the protein stability index was 4.33.
For the variant LVAHQGYHTGKTPFVCPECGQPCS [R6G], the protein stability index stood at 3.86.
Turning to LDAHQRYHTGKTPFVCPECGQPCS [V2D], the protein stability index amounted to 3.87.
In the case of LPAHQRYHTGKTPFVCPECGQPCS [V2P] it was 3.5; in that of LGAHQRYHTGKTPFVCPECGQPCS [V2G], 3.81.
Then LFAHQRYHTGKTPFVCPECGQPCS [V2F], with 2.78; and LAAHQRYHTGKTPFVCPECGQPCS [V2A], with 3.28; and LIAHQRYHTGKTPFVCPECGQPCS [V2I], with 3.1.
For the variant LLAHQRYHTGKTPFVCPECGQPCS [V2L], the protein stability index was determined as 3.09.
Then LEAHQRYHTGKTPFVCPECGQPCS [V2E], with 4.4; and LRAHQRYHTGKTPFVCPECGQPCS [V2R], with 3.36; and LHAHQRYHTGKTPFVCPECGQPCS [V2H], with 4.09.
In the case of LCAHQRYHTGKTPFVCPECGQPCS [V2C] it was 4.4; in that of LYAHQRYHTGKTPFVCPECGQPCS [V2Y], 2.81.
In the case of LWAHQRYHTGKTPFVCPECGQPCS [V2W] it was 2.57; in that of LKAHQRYHTGKTPFVCPECGQPCS [V2K], 2.91; in that of LSAHQRYHTGKTPFVCPECGQPCS [V2S], 3.49.
For LMAHQRYHTGKTPFVCPECGQPCS [V2M], the protein stability index was 3.34.
In the case of LQAHQRYHTGKTPFVCPECGQPCS [V2Q] it was 3.62; in that of LTAHQRYHTGKTPFVCPECGQPCS [V2T], 4.06; in that of LNAHQRYHTGKTPFVCPECGQPCS [V2N], 3.39.
Then LVAHKRYHTGKTPFVCPECGQPCS [Q5K], with 3.03; and LVAHPRYHTGKTPFVCPECGQPCS [Q5P], with 3.32; and LVAHRRYHTGKTPFVCPECGQPCS [Q5R], with 3.06.
In the case of LVAHWRYHTGKTPFVCPECGQPCS [Q5W] it was 1.16; in that of LVAHHRYHTGKTPFVCPECGQPCS [Q5H], 3.11.
Turning to LVAHGRYHTGKTPFVCPECGQPCS [Q5G], the protein stability index was determined as 2.98.
Then LVAHLRYHTGKTPFVCPECGQPCS [Q5L], with 2.05; and LVAHMRYHTGKTPFVCPECGQPCS [Q5M], with 2.24; and LVAHFRYHTGKTPFVCPECGQPCS [Q5F], with 1.95.
Then LVAHDRYHTGKTPFVCPECGQPCS [Q5D], with 3.74; and LVAHSRYHTGKTPFVCPECGQPCS [Q5S], with 3.14.
In the case of LVAHARYHTGKTPFVCPECGQPCS [Q5A] it was 3.22; in that of LVAHVRYHTGKTPFVCPECGQPCS [Q5V], 1.89; in that of LVAHTRYHTGKTPFVCPECGQPCS [Q5T], 3.07.
Turning to LVAHERYHTGKTPFVCPECGQPCS [Q5E], the protein stability index came to 4.17.
As for LVAHCRYHTGKTPFVCPECGQPCS [Q5C], the protein stability index was 2.86.
As to LVAHNRYHTGKTPFVCPECGQPCS [Q5N], the protein stability index was 3.15.
In the case of LVAHIRYHTGKTPFVCPECGQPCS [Q5I] it was 3.78; in that of LVAHYRYHTGKTPFVCPECGQPCS [Q5Y], 2.74; in that of LVAVQRYHTGKTPFVCPECGQPCS [H4V], 2.97.
